Experiment [1] deals with Ebola-Zaire-sGP: Soluble glycoprotein (sGP) released from infected cells (Ebola, species Zaire ebolavirus) (UniProt P60170).
Sequence of Ebola-Zaire-sGP: Soluble glycoprotein (sGP) released from infected cells (Ebola, species Zaire ebolavirus) (P60170 33-324 limits assumed): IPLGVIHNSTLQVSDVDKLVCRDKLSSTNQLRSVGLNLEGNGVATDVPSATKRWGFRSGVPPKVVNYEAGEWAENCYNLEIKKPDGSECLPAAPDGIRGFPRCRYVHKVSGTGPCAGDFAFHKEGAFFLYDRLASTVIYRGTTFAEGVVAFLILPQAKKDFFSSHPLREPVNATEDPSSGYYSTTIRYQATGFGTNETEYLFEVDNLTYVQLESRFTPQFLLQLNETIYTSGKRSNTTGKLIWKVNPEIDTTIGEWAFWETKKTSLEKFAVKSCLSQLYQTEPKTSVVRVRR

Sequence of Galanthus nivalis agglutinin (GNA) (P30617 24-128 limits assumed): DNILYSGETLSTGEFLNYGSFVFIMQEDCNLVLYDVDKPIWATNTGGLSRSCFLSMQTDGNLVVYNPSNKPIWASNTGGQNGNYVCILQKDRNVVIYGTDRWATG

Substance “Galanthus nivalis agglutinin (GNA) (from UniProt P30617 24-128)” returned a % Removal (run of 3 hours) in the experiment with Marburg-GP (Marburg) of 60%. Further, the % Removal at 6 hours in experiment [1] turned out to be 97%.
